Assay results: patent publication CN113842456A (QILU PHARMACEUTICAL CO LTD, dated 2021)

Columns and labels:
[1] = target: 人4-1BB on HEK293/Human4-1BB细胞 (human, UniProt Q07011 24-255); experiment: cell-based or functional assay
[2] = target: T1, 重组人4-1BB蛋白(ACRO，货号41B-H5227) (human, UniProt Q07011 24-186); experiment: SPR (BIAcore), antibody captured on Protein A on a CM5 chip, 4-1BB 20nM-0.31nM as analyte
T1 construct: Bought recombinant protein; also called 4-1BB抗原; TNFRSF9

Sequence of 人4-1BB on HEK293/Human4-1BB细胞 (Q07011 24-255): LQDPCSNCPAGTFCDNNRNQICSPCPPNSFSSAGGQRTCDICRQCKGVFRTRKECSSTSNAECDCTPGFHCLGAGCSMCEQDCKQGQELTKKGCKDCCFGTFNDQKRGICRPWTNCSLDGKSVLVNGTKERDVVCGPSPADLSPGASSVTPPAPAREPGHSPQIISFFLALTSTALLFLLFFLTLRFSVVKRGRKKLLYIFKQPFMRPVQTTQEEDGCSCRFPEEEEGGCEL

NF-κB报告基因发光值(RLU) EC50 [1]: 7.69 ng/mL
Kd [2]: 0.918 nM
B1: 抗人4-1BB的单克隆抗体MC03 (antibody, human IgG2, kappa, V domains shown)
VH: EVQLVQSGAEVKKPGATVKISCKASGFNIKDYYIHWVNQAPGKGLEWIGRIDPEDGDIAYAPKFQDRVTLTVDTSTDTAYLELSSLRSEDTAVYYCTTGNYYAMDFWGQGTTVTVSS
VL: QIVLTQSPATLSASPGERVTLSCTASSSVSSSYLHWYQQKPGSSPKLWIYSTSNLASGVPARFSGSGPGTSYTLTISSMEPEDAATYYCHQYHRSPPTFGQGTKLEIKR
notes: Obtained according to PCT/US2020/012080; The isotype control used is human IgG2; also called huG28.21.G2.1.4
